Test: soluble on expression in E. coli; label from the status in PepcDB or PDB records

| Sequence | soluble on expression in E. coli |
| --- | --- |
| MGSDKIHHHHHHMRHFIYQDEKSHKFRAVEQQGNELHISWGKVGTKGQSQIKSFSDAAAAAKAELKLIAEKVKKGYVEQAKDNSLQPSQTVTGSLKVADLSTIIQEQPSFVAETRAPDKNTDAVLPWLAKDIAVVFPPEVVHTTLSHRRFPGVPVQQADKLPQLRRLACSVSQRDNKTATFDFSACSLEWQNTVAQAISQIDGLKTTQLPSPVMAVLTALEMKCTRYKVREDVMDQIVQEGGLEYATDVIIHLQQIDIEWDYANNVIIILPSGIAPSYLEQYSRFE | not soluble |
| MSLEENDDDMVGMVDLKIDLERVVRNAVDDAKEVCTQHYGDCPDVKFIISKDANTMRFPHMSSTITYIVVELMKNAFRATVESHMERNSAGMVDCSNMPPVEVLVNIKKNAKHACICVSDEGLGMTRAQCELAMTYAYTTVKRPVIQHGADEDPEEERNGVSPLAGYGFGLPMSRVYAQAFGGDLVMSTMEGYGTRVYYYIKEGHHHHHH | soluble |
| MQEKSKMDCHGGISGTIYEYGALTIDGEEYIPFKQYAGKYVLFVNVASYGGLTGQYIELNALQEELAPFGLVILGFPCNQFGKQEPGENSEILPTLKYVRPGGGFVPNFQLFEKGDVNGEKEQKFYTFLKNSCPPTSELLGTSDRLFWEPMKVHDIRWNFEKFLVGPDGIPIMRWHHRTTVSNVKMDILSYMRRQAALGVAENLYFQ | soluble |
| MRALAKLAPEEGLTLVDRPVPEPGPGEILVRVEAASICGTDLHIWKWDAWARGRIRPPLVTGHEFSGVVEAVGPGVRRPQVGDHVSLESHIVCHACPACRTGNYHVCLNTQILGVDRDGGFAEYVVVPAENAWVNPKDLPFEVAAILEPFGNAVHTVYAGSGVSGKSVLITGAGPIGLMAAMVVRASGAGPILVSDPNPYRLAFARPYADRLVNPLEEDLLEVVRRVTGSGVEVLLEFSGNEAAIHQGLMALIPGGEARILGIPSDPIRFDLAGELVMRGITAFGIAGRRLWQTWMQGTALVYSGRVDLSPLLTHRLPLSRYREAFGLLASGQAVKVILDPKA | soluble |
| MTKLVLTPADTFFFKNHHATQAGETTVMESMFPPRPNTIYGALRAAYIYAYSSFDEFARGADERVKLWMGTPDERGAFRLHYCALADGDSLFLPLPLDYQVVEEGDSLKAYPLQLAKDRKPSSASTMWRLASSRREKTKSSQHRYVSLSEWKKALLLNQPIASLRTLSSFIVQEEKVGIQLDVSRRTAQEGFLYRVGKHRFLGDSSLVAYIDDGPDFSNVKWARIGGENRPWFIRQHPEEFRLWNDDEKRRIEQDIQRTKMAKIIFLSPAIFANGSRPAAMEGDRWTWPNGAVVTWLAAAIGRPELYGGWDIVRHRPKPRKWMIPAGSVIYVKIERDDDLRLVFSALDGIHLTDEGAEEGFGFAVLASVHESEEEL | not soluble |
| MGSDKIHHHHHHMNAEKSPENHNVDHEEIAKFEAVASRWWDLEGEFKPLHRINPLRLGYIAERAGGLFGKKVLDVGCGGGILAESMAREGATVTGLDMGFEPLQVAKLHALESGIQVDYVQETVEEHAAKHAGQYDVVTCMEMLEHVPDPQSVVRACAQLVKPGGDVFFSTLNRNGKSWLMAVVGAEYILRMVPKGTHDVKKFIKPAELLGWVDQTSLKERHITGLHYNPITNSFKLGPGVDVNYMLHTQNK | not soluble |
| MGSDKIHHHHHHMIPWVISPYSFDGSVVRFEKLALLLKRKGLKSVILADRNFHAAVKFNTIMRKHGLIPVHGLWKDGRIFVARNREEFDSLVRYYNGETHEIEDIPVFQESELTPVRYLDASEKKASIFMRKIFGLDEDVQGFPEKCEDVADILNAEAYDLRVNHRFPTPPKNWNELLIKKAEPLGEEYISRLKRELEVIKRKGFTPYIYTVEKVVEIAKKMGIKVGPGRGSAVGSLVAYLCGITEVDPIKYDLLFERFLNEERQEPPDIDVDVEDRRRKDLIKELSKSFQVYQVSTFGNLTEKSLKNLINSVLPDASLEEKNEIYKTVYGLPHHPSVHAAGVVISENPLPLPTRTEEDIPITDYDMYDLQEIGVVKIDILGLKTLSFIKDFKKEIFDYSDEKTYHLISKGKTLGVFQLEGLQARKLCRRISPRNMDELSILLALNRPGPLRSGLDVMFSNSKNVPAFFRKMFPETRGVLIYQEQIMRLAMFAGLSGTEADILRRAIAKKEREKMEPLLEKMKKGLLEKGMENAEQILEILLNFSSYAFNKSHSVAYAHITYQTAYLKAHHLEEFFKLYFAYNSSDAGKIFLAVQELRNEGYRVHPPDINISGKDLVFHGKDVYLPLTVVKGVGVTLVEQIEKIRPVSSVRELQERVTGVPRNVVESLITAGAFDKLYENRKLALEELNKRVEKDILEIRSLFGEKVEQESSNIKIGDITELEEKSMGFPLTPVHEVPTGLFARIDDVFTYGRILPVLVKRVSRNIVTDGLSVCRVRTDVPDGVHLVLLSPLQKIIKIWPFNENTRFVYRVDFTATLEKAGQNEITEVLKNGAVVRYEGYRPLTDEYRYRVVPR | not soluble |

Source: the DeepSol protein solubility set
